Assay results taken from publication PMC10184913.

B1: GmC4H20 (Glycine max) (protein)
chain: MGLQIKEPLLFTLVTISLISITKLLHSYFSIPFSPSNLSIAIATLIFVLISYKFSSSSIKHSSTTLPPGPLSVPIFGNWLQVGNDLNHRLLASMSQTYGPVFLLKLGSKNLVVVSDPELATQVLHAQGVEFGSRPRNVVFDIFTGNGQDMVFTVYGDHWRKMRRIMTLPFFTNKVVHNYSNMWEEEMDLVVRDLNVNERVRSEGIVIRRRLQLMLYNIMYRMMFDAKFESQEDPLFIQATRFNSERSRLAQSFEYNYGDFIPLLRPFLRGYLNKCKDLQSRRLAFFNTHYVEKRRQIMAANGEKHKISCAMDHIIDAQMKGEISEENVIYIVENINVAAIETTLWSIEWAVAELVNHPTVQSKIRDEISKVLKGEPVTESNLHELPYLQATVKETLRLHTPIPLLVPHMNLEEAKLGGHTVPKESKVVVNAWWLANNPSWWKNPEEFRPERFLEEECATDAVAGGKVDFRFVPFGVGRRSCPGIILALPILGLVIAKLVKSFQMSAPAGTKIDVSEKGGQFSLHIANHSTVLFHPIKTL
B2: GmC4H2 (Glycine max) (protein)
chain: MDLLLLEKTLIGLFLAAVVAIAVSTLRGRKFKLPPGPLPVPIFGNWLQVGDDLNHRNLTDLAKKFGDIFLLRMGQRNLVVVSSPELAKEVLHTQGVEFGSRTRNVVFDIFTGKGQDMVFTVYGEHWRKMRRIMTVPFFTNKVVQQYRHGWESEAAAVVEDVKKNPDAAVSGTVIRRRLQLMMYNNMYRIMFDRRFESEEDPIFQRLRALNGERSRLAQSFEYNYGDFIPILRPFLKGYLKICKEVKETRLKLFKDYFVDERKKLGSTKSTNNNNELKCAIDHILDAQRKGEINEDNVLYIVENINVAAIETTLWSIEWGIAELVNHPEIQQKLRDEIDRVLGAGHQVTEPDIQKLPYLQAVVKETLRLRMAIPLLVPHMNLHDAKLGGYDIPAESKILVNAWWLANNPAHWKKPEEFRPERFFEEESLVEANGNDFRYLPFGVGRRSCPGIILALPILGITLGRLVQNFELLPPPGQSQIDTSEKGGQFSLHILKHSTIVAKPRSF
B3: GmC4H14 (Glycine max) (protein)
chain: MDLLLLEKTLIGLFLAAVVAIAVSTLRGRKFKLPPGPLPVPIFGNWLQVGDDLNHRNLTDLAKKFGDIFLLRMGQRNLVVVSSPELAKEVLHTQGVEFGSRTRNVVFDIFTGKGQDMVFTVYGEHWRKMRRIMTVPFFTNKVVQQYRHGWESEAAAVVEDVKNNPDAAVSGTVIRRRLQLMMYNNMYRIMFDRRFESEEDPIFQRLRALNGERSRLAQSFEYNYGDFIPILRPFLKGYLKICKEVKETRLKLFKDYFVDERKKLGSIKSSNNNELKCAIDHILDAQRKGEINEDNVLYIVENINVAAIETTLWSIEWGIAELVNHPEIQQKVRDEIDRVLEAGHQVTEPDIQKLPYLQAVVKETLRLRMAIPLLVPHMNLHDAKLGGYDIPAESKILVNAWWLANNPAHWKKPEEFRPERFLEEELHVEANGNDFRYLPFGVGRRSCPGIILALPILAITLGRLVQNFELLPPPGQSQIDTSEKGGQFSLHILKHSTIVAKPRSF

Substrate: O=C(O)/C=C/c1ccccc1
Assay: cells, lysate or membranes
Settings: 1 mM NADPH, 50 mM phosphate pH 7.6, 25°C, co-expressed LjCPR1

Protein	Km [µM]
B1	3.83 ± 0.44
B2	6.438 ± 0.74
B3	2.74 ± 0.18
